B1: 01B05R2 VHH Mono-Fc (Fc fusion)
chain: EVQLVESGGGLVQAGGSLRLSCAASGRSLSFDTYAMGWFRQAPGKEREFVASIDWNGGSTYYADSVKGRFTISRDNARNTVNLRMNSLKPDDTAVYYCAAARYYTSGTYFPANYWGQGTQVTVSSSPAPELLGGPSVFLFPPKPKDTLMISRTPEVTCVVVDVSHEDPEVKFNWYVDGVEVHNAKTKPREEQYNSTYRVVSVLTVLHQDWLNGKEYKCKVSNKALPAPIEKTISKAKGQPREPQVYTKPPSREEMTKNQVSLSCLVKGFYPSDIAVEWESNGQPENNYKTTVPVLDSDGSFRLASYLTVDKSRWQQGNVFSCSVMHEALHNHYTQKSLSLSPGK
B2: 03C10R3 VHH Mono-Fc (Fc fusion)
chain: B1 chain with E1Q, A14R, S30G, S59N, R78K, V95A, Q117R, Q120L
B3: 03H05R3 VHH Mono-Fc (Fc fusion)
chain: QVQLVESGGGLVQAGGSLSLSCAASGRSLSFDTYAMSWFRQAPGKEREFVASIDWNGGSTSYADSMKGRFTISRDNAKNTVNLRIRSLKPDDTAVYFCASARYYIGGTYFPANYWGQGTQVTVSSSPAPELLGGPSVFLFPPKPKDTLMISRTPEVTCVVVDVSHEDPEVKFNWYVDGVEVHNAKTKPREEQYNSTYRVVSVLTVLHQDWLNGKEYKCKVSNKALPAPIEKTISKAKGQPREPQVYTKPPSREEMTKNQVSLSCLVKGFYPSDIAVEWESNGQPENNYKTTVPVLDSDGSFRLASYLTVDKSRWQQGNVFSCSVMHEALHNHYTQKSLSLSPGK
B4: 01H05R3 VHH Mono-Fc (Fc fusion)
chain: B1 chain with E1Q, S30G, A35G, G37A, V66M, R78K, G107S
B5: 01E10R3 VHH Mono-Fc (Fc fusion)
chain: QVQLVESGGGLVQSGGSLRLSCAASGRTFSDYAMGWFRQAPGKERELVAAITWNGGSTYYADSVKGRFTISRDNAKNTVDLQMNSLKPEDTAVYYCAADPLNSDSAGTYDYWGQGTLVTVSSSPAPELLGGPSVFLFPPKPKDTLMISRTPEVTCVVVDVSHEDPEVKFNWYVDGVEVHNAKTKPREEQYNSTYRVVSVLTVLHQDWLNGKEYKCKVSNKALPAPIEKTISKAKGQPREPQVYTKPPSREEMTKNQVSLSCLVKGFYPSDIAVEWESNGQPENNYKTTVPVLDSDGSFRLASYLTVDKSRWQQGNVFSCSVMHEALHNHYTQKSLSLSPGK
B6: 03G05R3 VHH Mono-Fc (Fc fusion)
chain: EVQLVESGGGLVQAGDSLRLSCAASGRALSFNTYAMAWFRQAPGKEREFVASITYNGGSTYYADSVKGRFTVTRDNGKNTVTLRMNSLKPDDTAVYYCASAQYWRSGTSFPANYWGQGTQVTVSSSPAPELLGGPSVFLFPPKPKDTLMISRTPEVTCVVVDVSHEDPEVKFNWYVDGVEVHNAKTKPREEQYNSTYRVVSVLTVLHQDWLNGKEYKCKVSNKALPAPIEKTISKAKGQPREPQVYTKPPSREEMTKNQVSLSCLVKGFYPSDIAVEWESNGQPENNYKTTVPVLDSDGSFRLASYLTVDKSRWQQGNVFSCSVMHEALHNHYTQKSLSLSPGK
B7: 01C04R3 VHH Mono-Fc (Fc fusion)
chain: B6 chain with E1Q, N79D, Q120L
B8: 01D06R2 VHH Mono-Fc (Fc fusion)
chain: QVQLVESGGGLVQAGDSLRLSCAASGRTLSFDTYAMAWFRQAPGKEREFVASIDWNGVNTYYADSVKGRFTVTRDNTKNTVTLRMNSLKTDDTAVYYCAAAQYYRSGTSFPANSWGQGTQVTVSSSPAPELLGGPSVFLFPPKPKDTLMISRTPEVTCVVVDVSHEDPEVKFNWYVDGVEVHNAKTKPREEQYNSTYRVVSVLTVLHQDWLNGKEYKCKVSNKALPAPIEKTISKAKGQPREPQVYTKPPSREEMTKNQVSLSCLVKGFYPSDIAVEWESNGQPENNYKTTVPVLDSDGSFRLASYLTVDKSRWQQGNVFSCSVMHEALHNHYTQKSLSLSPGK
B9: 01F04R3 VHH Mono-Fc (Fc fusion)
chain: B6 chain with E1Q, K67R, N76S, Q120L
B10: 02G03R3 VHH Mono-Fc (Fc fusion)
chain: EVQLVESGGGLVQAGGSLRLSCAASGMPDNIFSIKTMGWYRQAPGKERELVAAITSGGSTNYGDSVKDRFTISRDRIENTVNLEMNNLKPEDTAVYTCHADLTYIRFQDMEYWGKGTQVTVSSSPAPELLGGPSVFLFPPKPKDTLMISRTPEVTCVVVDVSHEDPEVKFNWYVDGVEVHNAKTKPREEQYNSTYRVVSVLTVLHQDWLNGKEYKCKVSNKALPAPIEKTISKAKGQPREPQVYTKPPSREEMTKNQVSLSCLVKGFYPSDIAVEWESNGQPENNYKTTVPVLDSDGSFRLASYLTVDKSRWQQGNVFSCSVMHEALHNHYTQKSLSLSPGK
B11: 01F01R2 VHH Mono-Fc (Fc fusion)
chain: QVQLVESGGGLVQAGGSLRLSCAASGRTFSSNPMGWFRQAPGKEREFVAAISWSGGGTYYADSVKGRFTISRDNAKNTVTLQMNSLKPEDTAVYYCASRDYSDPISLWVEDREYDYWGQGTQVTVSSSPAPELLGGPSVFLFPPKPKDTLMISRTPEVTCVVVDVSHEDPEVKFNWYVDGVEVHNAKTKPREEQYNSTYRVVSVLTVLHQDWLNGKEYKCKVSNKALPAPIEKTISKAKGQPREPQVYTKPPSREEMTKNQVSLSCLVKGFYPSDIAVEWESNGQPENNYKTTVPVLDSDGSFRLASYLTVDKSRWQQGNVFSCSVMHEALHNHYTQKSLSLSPGK
B12: 03B07R3 VHH Mono-Fc (Fc fusion)
chain: B11 chain with Q122L
B13: 03D05R3 VHH Mono-Fc (Fc fusion)
chain: B11 chain with Q1E, D111G, Q122L
B14: 01A09R2 VHH Mono-Fc (Fc fusion)
chain: B11 chain with Q1E
B15: 01E09R3LS VHH Mono-Fc (Fc fusion)
chain: EVQLVESGGGLVQAGGSLRLSCAASGRTINTYVMGWFRQAPGKEREFVARIDWSGSSTDYADSVKGRFTTSRDNAKNTVYLQMNGLKPEDTAVYYCAGSAYYSGYVTHRDFGSWGQGTLVTVSSSPAPELLGGPSVFLFPPKPKDTLMISRTPEVTCVVVDVSHEDPEVKFNWYVDGVEVHNAKTKPREEQYNSTYRVVSVLTVLHQDWLNGKEYKCKVSNKALPAPIEKTISKAKGQPREPQVYTKPPSREEMTKNQVSLSCLVKGFYPSDIAVEWESNGQPENNYKTTVPVLDSDGSFRLASYLTVDKSRWQQGNVFSCSVMHEALHNHYTQKSLSLSPGK
B16: 01C05R3LS VHH Mono-Fc (Fc fusion)
chain: B15 chain with T70I, G85S
B17: 01B10R3LS VHH Mono-Fc (Fc fusion)
chain: B15 chain with E1Q, N30Y, T31G, T70I, G85S, L119Q
B18: 01D07R3LS VHH Mono-Fc (Fc fusion)
chain: B15 chain with E1Q, T70I, G85S
B19: 01G09R2 VHH Mono-Fc (Fc fusion)
chain: B15 chain with V64A, T70I, G85S
B20: 01G10R3LS VHH Mono-Fc (Fc fusion)
chain: B15 chain with M34T, T70I, G85S, L119Q
B21: 01H11R3LS VHH Mono-Fc (Fc fusion)
chain: B15 chain with E1Q, T31G, T70I, N77T, M83T, G85S, L119Q

Numbering of substitutions follows the chain as printed.

One assay deals with T1, cynomolgus monkey pIgR extracellular domain (cynomolgus monkey, UniProt A0A2K5WMU9 19-638).
T1 construct: extracellular domain
T1 sequence (A0A2K5WMU9 entry or part of it): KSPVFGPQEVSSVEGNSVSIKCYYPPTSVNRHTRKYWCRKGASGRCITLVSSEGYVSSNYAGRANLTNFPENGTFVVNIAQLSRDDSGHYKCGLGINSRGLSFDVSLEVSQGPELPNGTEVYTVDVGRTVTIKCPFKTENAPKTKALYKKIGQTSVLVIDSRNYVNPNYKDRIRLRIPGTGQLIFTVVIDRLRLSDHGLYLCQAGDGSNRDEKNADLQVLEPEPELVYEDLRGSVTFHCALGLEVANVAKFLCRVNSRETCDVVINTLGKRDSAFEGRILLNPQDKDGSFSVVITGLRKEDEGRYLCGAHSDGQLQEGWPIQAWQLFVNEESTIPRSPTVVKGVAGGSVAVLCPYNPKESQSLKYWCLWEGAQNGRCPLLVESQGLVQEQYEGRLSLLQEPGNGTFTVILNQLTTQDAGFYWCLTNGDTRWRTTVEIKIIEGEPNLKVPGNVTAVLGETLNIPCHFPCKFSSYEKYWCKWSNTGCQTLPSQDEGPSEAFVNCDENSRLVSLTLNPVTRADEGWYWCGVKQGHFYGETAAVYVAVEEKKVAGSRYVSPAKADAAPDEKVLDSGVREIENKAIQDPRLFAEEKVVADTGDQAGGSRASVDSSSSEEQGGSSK
Put plainly: SPR, VHH captured by anti-Fc, ECD analyte. As for the experimental part: (§1) In an assay, two flow cells of the SPR were used, in which the flow cell 1 ran the buffer reference, and the flow cell 2 ran the analyte. […] The HBSP (GE) buffer was followed at a flow rate of 30 μL/min. Then, the VHHs were captured on the anti-human Fc protein surface at 0.5 ug/ml (˜200-300 RU) on the flow cell 2. The running buffer was changed to HBSP with 100 ug/ml BSA after the capture. Next, the pIgR extracellular domains were used as analyte and loaded in a series of concentrations, starting at 30 nM with further 3-fold dilution series.
(§2) The extracellular domains were prepared as follows: cynomolgus monkey and rat extracellular domains were produced and characterized in house; mouse and human pIgR extracellular domains were purchased from R&D Systems (Cat #2800-PG-050 & 2717-PG-050 respectively). The pIgR extracellular domains were injected from low to high concentration using a single-cycle kinetics method. The off-rate was monitored at 30 minutes after the last or highest concentration injection. The reference run was completed under the same conditions except that the pIgR injection was replaced by buffer injection.
(§3) The raw data were processed by subtracting two sets of reference data from the response data: (1) reference flow cell 1 subtracted from sample flow cell 2; and (2) buffer blank run subtracted from experimental run. The processed data at all concentrations for each VHH were globally fit to a 1:1 simple Langmuir binding model to extract estimates of the kinetic constants (kₒₙ, koff) and affinity constants (KD).
B1 returned a Kd of 177 nM.

Molecule B2 showed a Kd of 17.5 nM.

B3 displayed a Kd of 108 nM.

B4 yielded a Kd of 406 nM.

Take B5: the Kd was 23.2 nM.

As to B6, the affinity, expressed as Kd, was 30.1 nM.

For the molecule B7, the Kd came out at 46.3 nM.

B8 displayed a Kd of 14.4 nM.

For B9, the Kd was determined as 30.9 nM.

In turn, B10 came in with a Kd of 3.99 nM.

Take B11: the affinity, expressed as Kd, was 4.08 nM.

The molecule B12 registered a Kd of 4.26 nM.

Take B13: the Kd was determined as 4.59 nM.

The molecule B14 displayed a Kd of 4.02 nM.

With B15, the Kd turned out to be 135 nM.

As to B16, binding was characterised by a dissociation constant (Kd) of 84.9 nM.

The molecule B17 had a Kd of 192 nM.

Molecule B18 had a Kd of 103 nM.

In turn, B19 displayed a Kd of 106 nM.

For B20, the Kd is 287 nM.

Molecule B21 came in with a Kd of 252 nM.

In the next assay the target is T2, human pIgR extracellular domain (ECD) (human, UniProt P01833 19-638).
T2 construct: Bought from R&D Systems (Cat 2717-PG-050); also called hpIgR ECD
T2 sequence (P01833 other isoform, or with tags, fused parts or gaps): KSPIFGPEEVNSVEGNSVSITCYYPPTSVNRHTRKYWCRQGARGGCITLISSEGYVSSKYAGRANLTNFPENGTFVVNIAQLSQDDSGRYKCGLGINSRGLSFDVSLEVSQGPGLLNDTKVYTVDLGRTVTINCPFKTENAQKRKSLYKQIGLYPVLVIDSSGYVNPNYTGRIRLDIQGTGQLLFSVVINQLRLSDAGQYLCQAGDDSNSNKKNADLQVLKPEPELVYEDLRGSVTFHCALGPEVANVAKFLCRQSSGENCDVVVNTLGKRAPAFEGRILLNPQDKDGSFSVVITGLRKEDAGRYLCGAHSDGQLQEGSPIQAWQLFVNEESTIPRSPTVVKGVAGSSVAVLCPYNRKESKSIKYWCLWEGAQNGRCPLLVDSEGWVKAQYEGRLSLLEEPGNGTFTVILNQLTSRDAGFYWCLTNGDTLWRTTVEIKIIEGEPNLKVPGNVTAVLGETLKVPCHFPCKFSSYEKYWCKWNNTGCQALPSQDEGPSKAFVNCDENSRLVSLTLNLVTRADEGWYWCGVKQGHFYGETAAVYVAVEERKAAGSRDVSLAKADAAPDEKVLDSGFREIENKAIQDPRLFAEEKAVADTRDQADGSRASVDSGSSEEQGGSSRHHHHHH
The assay can be described thus: SPR, VHH captured by anti-Fc, ECD analyte. As for the experimental part:
as §1, §2, §3
Turning to B1, the Kd was found to be 3.55 nM.

With B2, binding was characterised by a dissociation constant (Kd) of 1.67 nM.

Molecule B3 returned a Kd of 2.93 nM.

B4 yielded a Kd of 7.54 nM.

B5 registered a Kd of 1.39 nM.

B6 had a Kd of 3.7 nM.

Consider B7, for which the Kd worked out at 3.09 nM.

As to B8, binding was put at a Kd of 1.44 nM.

Take B9: binding was characterised by a dissociation constant (Kd) of 5.92 nM.

As to B10, the Kd stood at 1.48 nM.

In turn, B11 gave a Kd of 2.13 nM.

In turn, B12 had a Kd of 2.33 nM.

For the molecule B13, the Kd was 2.14 nM.

Take B14: binding was put at a Kd of 2.14 nM.

On to B15, for which the Kd was 8.39 nM.

B16 yielded a Kd of 5.77 nM.

The molecule B17 came in with a Kd of 38 nM.

B18 came in with a Kd of 9.78 nM.

On to B19, for which the Kd came to 6.58 nM.

Molecule B20 gave a Kd of 18.5 nM.

The molecule B21 showed a Kd of 8.42 nM.

Values taken from patent US20220112276A1 (Janssen / Centocor, published 2022).
